Here are results for 1 substance from US20040171549A1.

The target of the assay is integrin alpha v beta 3 present at the surface of the endothelial cells (CPAE) (bovine (calf pulmonary artery endothelial cells)) (UniProt P80746). Nature of the assay: cell-based or functional assay.
UniProt P80746, sequence (P80746 31-1048): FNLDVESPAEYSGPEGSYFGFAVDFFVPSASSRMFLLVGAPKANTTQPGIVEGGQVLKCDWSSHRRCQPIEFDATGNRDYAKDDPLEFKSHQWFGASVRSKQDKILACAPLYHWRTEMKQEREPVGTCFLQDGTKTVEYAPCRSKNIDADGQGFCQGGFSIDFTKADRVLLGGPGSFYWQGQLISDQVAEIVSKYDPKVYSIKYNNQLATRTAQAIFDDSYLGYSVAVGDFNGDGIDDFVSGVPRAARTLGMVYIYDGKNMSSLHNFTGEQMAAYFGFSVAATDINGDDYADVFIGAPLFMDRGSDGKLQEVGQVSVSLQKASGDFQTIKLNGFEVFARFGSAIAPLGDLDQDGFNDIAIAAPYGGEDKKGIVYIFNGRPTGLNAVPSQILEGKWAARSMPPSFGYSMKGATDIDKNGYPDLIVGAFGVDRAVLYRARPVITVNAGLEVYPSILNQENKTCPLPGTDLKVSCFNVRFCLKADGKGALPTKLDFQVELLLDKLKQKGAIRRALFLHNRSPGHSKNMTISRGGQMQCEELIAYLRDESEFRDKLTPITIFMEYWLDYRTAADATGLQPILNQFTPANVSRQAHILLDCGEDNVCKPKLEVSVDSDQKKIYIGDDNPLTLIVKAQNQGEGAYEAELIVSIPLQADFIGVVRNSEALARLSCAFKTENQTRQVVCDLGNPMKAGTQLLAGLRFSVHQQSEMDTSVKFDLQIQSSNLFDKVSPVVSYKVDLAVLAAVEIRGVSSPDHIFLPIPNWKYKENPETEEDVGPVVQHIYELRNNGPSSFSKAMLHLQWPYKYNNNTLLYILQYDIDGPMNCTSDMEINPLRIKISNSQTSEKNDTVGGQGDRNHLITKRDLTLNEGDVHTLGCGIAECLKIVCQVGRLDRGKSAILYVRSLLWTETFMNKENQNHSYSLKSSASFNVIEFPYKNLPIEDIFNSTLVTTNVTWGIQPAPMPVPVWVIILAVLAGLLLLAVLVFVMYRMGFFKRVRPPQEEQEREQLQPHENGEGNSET

In turn, “1.4-kDa fragment of AMEP constituted of 12 amino acids with the sequence RGDC (peptide)” returned an inhibition of the adhesion of the cells on fibrinogen of 50% and an inhibition of the adhesion of the cells on vitronectin of 49%.
